{"source": "paper PMC3145977", "about": "“Thermostabilisation of an Agonist-Bound Conformation of the Human Adenosine A2A Receptor” (Journal of Molecular Biology, 2011)", "molecules": {"B1": {"name": "GL0: A2AR point mutant L48A, renamed GL0 (protein, UniProt P29274 1-412, looked up, variant L48A)", "Adenosine receptor A2a": "MPIMGSSVYITVELAIAVLAILGNVLVCWAVWLNSNLQNVTNYFVVSAAAADIAVGVLAIPFAITISTGFCAACHGCLFIACFVLVLTQSSIFSLLAIAIDRYIAIRIPLRYNGLVTGTRAKGIIAICWVLSFAIGLTPMLGWNNCGQPKEGKNHSQGCGEGQVACLFEDVVPMNYMVYFNFFACVLVPLLLMLGVYLRIFLAARRQLKQMESQPLPGERARSTLQKEVHAAKSLAIIVGLFALCWLPLHIINCFTFFCPDCSHAPLWLMYLAIVLSHTNSVVNPFIYAYRIREFRQTFRKIIRSHVLRQQEPFKAAGTSARVLAAHGSDGEQVSLRLNGHPPGVWANGSAPHPERRPNGYALGLVSGGSAQESQGNTGLPDVELLSHELKGVCPEPPGLDDPLAQDGAGVS"}, "B2": {"name": "GL23: A2AR mutant L48A-Q89A-T65A (protein, UniProt P29274 1-412, looked up, variant L48A Q89A T65A)", "Adenosine receptor A2a": "B1 Adenosine receptor A2a with T65A, Q89A"}, "B3": {"name": "A236L: A2AR point mutant A236L (protein, UniProt P29274 1-412, looked up, variant A236L)", "Adenosine receptor A2a": "B1 Adenosine receptor A2a with A48L, A236L"}, "B4": {"name": "I238A: A2AR point mutant I238A (protein, UniProt P29274 1-412, looked up, variant I238A)", "Adenosine receptor A2a": "B1 Adenosine receptor A2a with A48L, I238A"}, "B5": {"name": "V282A: A2AR point mutant V282A (protein, UniProt P29274 1-412, looked up, variant V282A)", "Adenosine receptor A2a": "B1 Adenosine receptor A2a with A48L, V282A"}, "B6": {"name": "A50L: A2AR point mutant A50L (protein, UniProt P29274 1-412, looked up, variant A50L)", "Adenosine receptor A2a": "B1 Adenosine receptor A2a with A48L, A50L"}, "B7": {"name": "S47A: A2AR point mutant S47A (protein, UniProt P29274 1-412, looked up, variant S47A)", "Adenosine receptor A2a": "B1 Adenosine receptor A2a with S47A, A48L"}}, "key": {"[1]": {"molecular_target": "A2AR-GL26 (L48A-Q89A-T65A-A54L) (Homo sapiens, UniProt P29274, A54L/L48A/Q89A/T65A)", "sequence (P29274 whole entry L48A/A54L/T65A/Q89A)": "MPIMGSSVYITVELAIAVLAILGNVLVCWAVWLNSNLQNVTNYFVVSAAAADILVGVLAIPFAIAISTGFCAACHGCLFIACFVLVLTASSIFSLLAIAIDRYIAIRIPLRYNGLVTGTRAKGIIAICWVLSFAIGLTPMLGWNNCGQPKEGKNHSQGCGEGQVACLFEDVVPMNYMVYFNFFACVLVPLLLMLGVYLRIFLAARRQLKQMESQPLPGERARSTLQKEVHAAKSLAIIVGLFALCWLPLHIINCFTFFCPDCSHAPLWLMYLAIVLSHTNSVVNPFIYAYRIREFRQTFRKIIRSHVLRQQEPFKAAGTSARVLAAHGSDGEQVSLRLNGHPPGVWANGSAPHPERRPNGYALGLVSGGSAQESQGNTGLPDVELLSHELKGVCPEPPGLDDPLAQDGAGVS"}, "[^3H]NECA-bound A2AR [2]": {"test_system": "[^3H]NECA-bound A2AR", "test": "Thermostability assay of detergent-solubilised receptor with [3H]NECA bound (ligand plus format)", "type": "physicochemical, human", "details": "for Improvement in stability compared to WT based on t1/2 (decrease in rate of unfolding): from Fig. 2c", "method": "(§1) […]. After solubilisation in DDM, A2AR was bound to Ni^2+-NTA resin, washed to reduce the DDM concentration and then eluted (see Methods). […]. An aliquot of E. coli cells (14 mL) was thawed on ice and resupended in 500 μL of buffer A [50 mM Tris–HCl (pH 7.4), 0.4 M NaCl, 250 μg/mL lysozyme (Sigma) and 1 mg/mL DNase I (Sigma), supplemented with complete ethylenediaminetetraacetic acid (EDTA)-free Protease inhibitor cocktail (Roche)] and incubated for 1 h at 4 °C. Samples were then sonicated for 1 min at 4 °C using a cup-horn sonicator. The receptors were solubilised by adding 1% DDM and incubated for 1 h at 4 °C. Insoluble material was removed by centrifugation (5 min, 13,000g, 4 °C). The solubilised receptors were partially purified with Ni-NTA agarose (Qiagen). Agarose beads (300 μL) pre-equilibrated in buffer A were added to 700 μL of solubilised receptor. […].\n(§2) The sample was incubated for 45 min at 4 °C, then 30 min at the specified temperature and then 30 min at 4 °C. Receptor-bound and free radioligands were separated as previously described on mini gel-filtration columns.[26] Receptor-bound ligands were transferred to a 96-well plate (PerkinElmer) and mixed with 200 μL of Optiphase supermix (PerkinElmer). The bound ^3H-labeled ligand was determined using a 1450 Microbeta Trilux counter (1 min per sample).\n(§3) For all the thermostabilisation studies carried out in our laboratory, the apparent Tm is the temperature for which 50% of the solubilised receptor remains folded after 30 min of incubation. The rate constant of the protein denaturation is a function of the temperature, and consequently, thermal denaturation of a protein can be compared to a chemical reaction for which the rate of the reaction is dependant on the temperature. Arrhenius established that any chemical reaction is temperature dependant. […]. The reference measurement representing the total binding activity of the sample A0 was considered to be measured at 4 °C. From the graphical representation t = Log10(t1/2) (Fig. 2c), we could extract a half-life for each construct at any temperature to define the improvement in stability of the various mutants compared to WT A2AR."}, "[^3H]NECA-bound A2AR [3]": {"molecular_target": "T1, [^3H]NECA-bound A2AR (Homo sapiens, UniProt P29274)", "T1 construct": "The library of Ala/Leu scan mutants in the receptor A2aR-(2–316) was expressed from plasmid pRG/III-hs-MBP in E. coli strain DH5α; made in house; host or cells: Escherichia coli DH5α", "T1 sequence (P29274 2-316)": "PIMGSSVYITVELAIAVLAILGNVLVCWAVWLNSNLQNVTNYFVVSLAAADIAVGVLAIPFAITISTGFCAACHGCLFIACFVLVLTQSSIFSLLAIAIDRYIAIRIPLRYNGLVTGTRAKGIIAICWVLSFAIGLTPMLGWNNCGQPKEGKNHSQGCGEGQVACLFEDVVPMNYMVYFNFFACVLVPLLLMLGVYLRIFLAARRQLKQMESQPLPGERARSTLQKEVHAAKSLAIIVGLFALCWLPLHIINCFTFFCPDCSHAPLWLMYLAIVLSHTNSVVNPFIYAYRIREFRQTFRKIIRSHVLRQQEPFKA", "set-up": "method as in PMID 18664584", "details": "solubilised in DM; cited from earlier work"}, "[^3H]ZM241385-bound A2AR [4]": {"test_system": "[^3H]ZM241385-bound A2AR", "test": "Thermostability assay of detergent-solubilised receptor with [3H]ZM241385 bound", "type": "physicochemical, human", "method": "(§4) An aliquot of E. coli cells (14 mL) was thawed on ice and resupended in 500 μL of buffer A [50 mM Tris–HCl (pH 7.4), 0.4 M NaCl, 250 μg/mL lysozyme (Sigma) and 1 mg/mL DNase I (Sigma), supplemented with complete ethylenediaminetetraacetic acid (EDTA)-free Protease inhibitor cocktail (Roche)] and incubated for 1 h at 4 °C. Samples were then sonicated for 1 min at 4 °C using a cup-horn sonicator. The receptors were solubilised by adding 1% DDM and incubated for 1 h at 4 °C. Insoluble material was removed by centrifugation (5 min, 13,000g, 4 °C). The solubilised receptors were partially purified with Ni-NTA agarose (Qiagen). Agarose beads (300 μL) pre-equilibrated in buffer A were added to 700 μL of solubilised receptor. […].\nas §2"}, "[^3H]ZM241385-bound A2AR [5]": {"molecular_target": "T2, [^3H]ZM241385-bound A2AR (Homo sapiens, UniProt P29274)", "T2 construct": "The library of Ala/Leu scan mutants in the receptor A2aR-(2–316) was expressed from plasmid pRG/III-hs-MBP in E. coli strain DH5α; made in house; host or cells: Escherichia coli DH5α", "T2 sequence (P29274 2-316)": "as above", "test": "Thermostability assay of detergent-solubilised receptor with [3H]ZM241385 bound", "type": "physicochemical", "details": "identical conditions; DDM", "method": "as §4, §2"}, "[^3H]NECA-bound A2AR [6]": {"molecular_target": "T3, [^3H]NECA-bound A2AR (Homo sapiens, UniProt P29274, L48A/Q89A/T65A)", "T3 construct": "The library of Ala/Leu scan mutants in the receptor A2aR-(2–316) was expressed from plasmid pRG/III-hs-MBP in E. coli strain DH5α; made in house; host or cells: Escherichia coli DH5α", "T3 sequence (P29274 2-316 L48A/T65A/Q89A)": "as the sequence (P29274 2-316) above, with L47A, T64A, Q88A counted along it", "test": "Thermostability assay of detergent-solubilised receptor with [3H]NECA bound (ligand plus format)", "type": "physicochemical", "details": "[3H]NECA bound", "method": "as §1, §2, §3"}}, "note": "Changes are numbered by the printed parent chain. In names and notes the source's numbering stands. Several values for one entry are separate records, joined by “and”; a condition that tells them apart may be missing. Equal values may be shown once. Read-outs that look alike come from different tables or passages of the source. Marks after values point to notes of the source that are not given here."}
{"molecule": "Nc1nc2ccc(Cl)cc2c2nc(-c3ccco3)nn12", "note": "[CGS15943]", "values": [{"measurement": "Reduction of binding affinity versus WT A2AR", "setting": "[1]", "result": 320, "unit": "fold"}]}
{"molecule": "WT A2AR: wild-type human adenosine A2A receptor [reference compound]", "values": [{"measurement": "Apparent Tm in DDM, Final values", "setting": "[^3H]NECA-bound A2AR [2]; [3H]NECA bound, 0.025% DDM, replicate experiments", "result": "28.6 ± 0.2 °C and 28.6 ± 0.2 (n = 8) °C"}, {"measurement": "Apparent Tm, Agonist [^3H]NECA", "setting": "[^3H]NECA-bound A2AR [2]; [3H]NECA bound, DDM, 30 min heating, single thermostability curve, estimated error ± 0.5 °C", "result": 28.5, "unit": "°C"}, {"measurement": "Apparent Tm in DM", "setting": "[^3H]NECA-bound A2AR [3]", "result": 23, "unit": "°C"}, {"measurement": "Apparent Tm, Antagonist [^3H]ZM241385", "setting": "[^3H]ZM241385-bound A2AR [4]; [3H]ZM241385 bound, DDM, 30 min heating, single thermostability curve", "result": "32.0 ± 0.1", "unit": "°C"}, {"measurement": "Apparent Tm, Antagonist [^3H]ZM241385", "setting": "[^3H]ZM241385-bound A2AR [4]; [3H]ZM241385 bound, DDM, 30 min heating, single thermostability curve, listed as WT", "result": 32, "unit": "°C"}, {"measurement": "Stability of [3H]ZM241385-bound versus [3H]NECA-bound A2AR", "setting": "[^3H]ZM241385-bound A2AR [5]", "result": 3.5, "unit": "°C"}]}
{"molecule": "B1", "values": [{"measurement": "Apparent Tm in DDM, Single measurement", "setting": "[^3H]NECA-bound A2AR [2]", "result": 42.5, "unit": "°C"}, {"measurement": "Improvement in stability (apparent Tm) of NECA-bound A2AR versus WT", "setting": "[^3H]NECA-bound A2AR [2]; [3H]NECA bound, DDM", "result": 13.6, "unit": "°C"}, {"measurement": "Improvement in stability compared to WT based on t1/2 (decrease in rate of unfolding)", "setting": "[^3H]NECA-bound A2AR [2]; [3H]NECA bound, DDM", "result": 49, "unit": "fold"}, {"measurement": "Apparent Tm, Antagonist [^3H]ZM241385", "setting": "[^3H]ZM241385-bound A2AR [4]", "result": "0 ^b °C"}, {"measurement": "Binding of [^3H]ZM241385", "setting": "[^3H]ZM241385-bound A2AR [4]; at 4 °C, 100 nM radioligand", "result": "did not bind"}]}
{"molecule": "B2", "values": [{"measurement": "Apparent Tm in DDM, Single measurement", "setting": "[^3H]NECA-bound A2AR [2]", "result": 50, "unit": "°C"}, {"measurement": "Improvement in stability compared to WT based on t1/2 (decrease in rate of unfolding)", "setting": "[^3H]NECA-bound A2AR [2]; [3H]NECA bound, DDM", "result": 226, "unit": "fold"}, {"measurement": "Improvement in stability compared to WT based on t1/2 (decrease in rate of unfolding)", "setting": "[^3H]NECA-bound A2AR [2]; [3H]NECA bound, DDM, listed as A2AR-GL23", "result": "about 230 fold"}, {"measurement": "Decrease in stability in DM compared with DDM", "setting": "[^3H]NECA-bound A2AR [6]", "result": 7.7, "unit": "°C"}]}
{"molecule": "B3", "values": [{"measurement": "Apparent Tm, Antagonist [^3H]ZM241385", "setting": "[^3H]ZM241385-bound A2AR [4]", "result": 38, "unit": "°C"}, {"measurement": "ΔTm, Antagonist [^3H]ZM241385", "setting": "[^3H]ZM241385-bound A2AR [4]", "result": "+ 6 °C"}]}
{"molecule": "B4", "values": [{"measurement": "Apparent Tm, Antagonist [^3H]ZM241385", "setting": "[^3H]ZM241385-bound A2AR [4]", "result": 36, "unit": "°C"}, {"measurement": "ΔTm, Antagonist [^3H]ZM241385", "setting": "[^3H]ZM241385-bound A2AR [4]", "result": "+ 4 °C"}]}
{"molecule": "B5", "values": [{"measurement": "Apparent Tm, Antagonist [^3H]ZM241385", "setting": "[^3H]ZM241385-bound A2AR [4]", "result": 33, "unit": "°C"}, {"measurement": "ΔTm, Antagonist [^3H]ZM241385", "setting": "[^3H]ZM241385-bound A2AR [4]", "result": "+ 1 °C"}]}
{"molecule": "B6", "values": [{"measurement": "Apparent Tm, Antagonist [^3H]ZM241385", "setting": "[^3H]ZM241385-bound A2AR [4]", "result": 38.5, "unit": "°C"}, {"measurement": "ΔTm, Antagonist [^3H]ZM241385", "setting": "[^3H]ZM241385-bound A2AR [4]", "result": "+ 6.5 °C"}]}
{"molecule": "B7", "values": [{"measurement": "Apparent Tm, Antagonist [^3H]ZM241385", "setting": "[^3H]ZM241385-bound A2AR [4]", "result": 25.5, "unit": "°C"}, {"measurement": "ΔTm, Antagonist [^3H]ZM241385", "setting": "[^3H]ZM241385-bound A2AR [4]", "result": "− 6.5 °C"}]}
